Source: the supplement of paper PMC9876800

Test system: peptide library, one residue held at a place counted from the S/T acceptor
Test: relative phosphorylation of the sub-library (ratio to the mean residue at this position); higher = residue favoured
Details: human
Method in brief: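 Purified recombinant kinases, either human or orthologue constructs, were incubated in 384-well plates with biotinylated degenerate peptide sub-libraries. Each sub-library fixed one residue at one position around a central Ser/Thr. Peptides at 50 μM and 50 μM ATP spiked with γ-32P-ATP were used for 90 min under kinase-specific conditions, and spots on streptavidin membranes were phosphorimaged and quantified by densitometry. Relative sub-library phosphorylation is expressed as a ratio to the mean residue at that position.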

Chain of CDK3, construct: Full length (Q00526 whole entry, looked up): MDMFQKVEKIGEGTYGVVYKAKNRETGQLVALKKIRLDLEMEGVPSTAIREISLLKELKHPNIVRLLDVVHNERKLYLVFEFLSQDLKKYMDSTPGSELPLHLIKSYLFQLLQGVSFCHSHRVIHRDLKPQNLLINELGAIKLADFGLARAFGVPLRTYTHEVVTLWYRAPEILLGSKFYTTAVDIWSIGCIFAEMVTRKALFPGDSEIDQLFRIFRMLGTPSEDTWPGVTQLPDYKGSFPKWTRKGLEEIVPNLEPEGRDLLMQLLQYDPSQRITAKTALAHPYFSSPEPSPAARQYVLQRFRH

CDK3, construct: Full length (from UniProt Q00526)
relative phosphorylation
Details	at +1	at +2	at +3	at +4	at -1	at -2	at -3	at -4	at -5
A fixed	0.28	1.2	0.418	1.14	1.12	1.17	1.14	1.23	1.11
D fixed	0.17	0.658	0.277	0.882	0.844	0.837	0.997	1.07	1.31
E fixed	0.172	0.626	0.25	0.783	0.718	0.938	0.839	1.29	1.06
F fixed	0.14	0.857	0.261	0.778	0.703	0.855	0.746	0.8	0.944
G fixed	0.912	0.851	0.612	1.43	1.72	1.28	1.83	1.49	1.37
H fixed	0.177	1.06	0.699	1.06	0.778	0.981	0.984	0.966	0.993
I fixed	0.156	0.775	0.261	0.697	0.343	0.691	0.618	0.589	0.656
K fixed	0.214	2	9.66	1.99	1.58	0.753	0.978	1.1	1.06
L fixed	0.156	0.891	0.266	0.736	0.741	0.957	0.777	0.709	0.629
M fixed	0.167	0.98	0.284	0.962	0.969	0.889	0.766	0.957	0.695
N fixed	0.193	1.05	0.405	0.988	1.1	0.909	1.06	0.938	0.887
P fixed	13.3	0.682	0.644	1.04	1.87	2.78	2.04	1.54	1.51
Q fixed	0.212	1.29	0.401	0.933	1.17	0.825	0.943	0.836	0.915
R fixed	0.2	1.9	1.69	1.1	1.48	0.835	1	1.01	1.12
V fixed	0.216	0.851	0.302	0.682	0.453	0.688	0.654	0.602	0.832
W fixed	0.155	0.653	0.277	1.05	0.613	0.867	0.807	0.969	1.01
Y fixed	0.142	0.664	0.288	0.741	0.793	0.744	0.814	0.891	0.895
pThr fixed	0.523	0.933	0.86	0.685	0.434	0.731	0.886	1	1.24
pTyr fixed	0.633	0.538	0.927	0.718	0.48	0.698	0.853	0.982	0.947
